Measurements: paper PMC4839367

Biological target: Ad5D24 oncolytic adenovirus (viral particle, capsid) (human adenovirus serotype 5) (UniProt P04133)
Assay: SPR

Chain of UniProt P04133 (P04133 whole entry, looked up): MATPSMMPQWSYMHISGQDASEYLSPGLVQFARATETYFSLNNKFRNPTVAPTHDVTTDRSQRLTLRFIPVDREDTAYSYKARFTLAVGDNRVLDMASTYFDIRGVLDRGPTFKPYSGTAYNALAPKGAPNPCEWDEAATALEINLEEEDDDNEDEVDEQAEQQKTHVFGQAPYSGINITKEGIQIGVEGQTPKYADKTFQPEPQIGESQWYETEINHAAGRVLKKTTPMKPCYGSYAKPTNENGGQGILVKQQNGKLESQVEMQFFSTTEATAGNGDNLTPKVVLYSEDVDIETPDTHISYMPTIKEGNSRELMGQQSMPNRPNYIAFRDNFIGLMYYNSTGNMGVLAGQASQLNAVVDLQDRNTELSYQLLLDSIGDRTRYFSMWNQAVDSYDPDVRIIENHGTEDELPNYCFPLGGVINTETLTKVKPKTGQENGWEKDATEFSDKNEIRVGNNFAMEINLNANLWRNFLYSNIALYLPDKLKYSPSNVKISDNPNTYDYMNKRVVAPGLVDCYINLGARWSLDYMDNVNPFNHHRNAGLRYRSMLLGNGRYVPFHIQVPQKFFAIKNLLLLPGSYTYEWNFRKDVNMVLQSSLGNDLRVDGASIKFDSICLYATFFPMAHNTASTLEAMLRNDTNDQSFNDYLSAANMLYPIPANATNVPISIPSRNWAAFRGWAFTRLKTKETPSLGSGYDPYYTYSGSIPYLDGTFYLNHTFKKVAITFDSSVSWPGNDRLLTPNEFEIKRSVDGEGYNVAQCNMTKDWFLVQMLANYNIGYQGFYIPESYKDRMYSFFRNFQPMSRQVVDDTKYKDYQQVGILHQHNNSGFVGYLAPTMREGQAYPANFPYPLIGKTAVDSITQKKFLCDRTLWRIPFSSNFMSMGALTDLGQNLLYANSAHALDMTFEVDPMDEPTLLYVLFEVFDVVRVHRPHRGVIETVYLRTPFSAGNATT

polyK-SIINFEKL (peptide)
Kd: 2880 nM
